Measurements: paper PMC9125324, “MdJa2 Participates in the Brassinosteroid Signaling Pathway to Regulate the Synthesis of Anthocyanin and Proanthocyanidin in Red-Fleshed Apple”
Changes are numbered by the printed parent chain.

B1: ANS promoter probe (dsDNA)
DNA 1: GCAATTAAGTTTGTAAACCAATAATTAACTTAATTTTGAT
DNA 2: ATCAAAATTAAGTTAATTATTGGTTTACAAACTTAATTGC
B2: ANS-mutant probe (dsDNA)
DNA 1: B1 DNA 1 with T5C, T6C
DNA 2: B1 DNA 2 with A35G, A36G
B3: MYB12-mutant probe (printed NYB12-mutant) (dsDNA)
DNA 1: AAATTCAGGAACCATTGCTACAACCAAGCATAACACAGT
DNA 2: ACTGTGTTATGCTTGGTTGTAGCAATGGTTCCTGAATTT
B4: MYB12 promoter probe (dsDNA)
DNA 1: B3 DNA 1 with C24T, C25T
DNA 2: B3 DNA 2 with G15A, G16A
B5: MYB9 promoter probe (dsDNA)
DNA 1: TAAATAGTAATAATATCATTTTTGTACATTCAGATAA
DNA 2: TTATCTGAATGTACAAAAATGATATTATTACTATTTA
B6: MYB9-mutant probe (dsDNA)
DNA 1: B5 DNA 1 with T19C, T20C
DNA 2: B5 DNA 2 with A18G, A19G

Experiments:
MdJa2-His [1] = biological target: T1, MdJa2-His (Malus domestica? (red-fleshed apple), UniProt Q208U7 1-224); test: EMSA; EMSA (LightShift kit): 2.5% glycerol, 5 mM MgCl2, 10 mM EDTA, 50 mM KCl; room temperature, 30 min; pH not stated; conditions: protein: recombinant, tags: His (pET32a), chain copies: 2, blunt
MdJa2-His [2] = biological target: T1, MdJa2-His; test: competition; 50-200x excess vs labeled N5; EMSA (LightShift kit): 2.5% glycerol, 5 mM MgCl2, 10 mM EDTA, 50 mM KCl; room temperature, 30 min; pH not stated; conditions: protein: recombinant; tags: His (pET32a); chain copies: 2; blunt
MdJa2-His [3] = biological target: T1, MdJa2-His; test: competition; 50-200x excess vs labeled N3; EMSA (LightShift kit): 2.5% glycerol, 5 mM MgCl2, 10 mM EDTA, 50 mM KCl; room temperature, 30 min; pH not stated; conditions: protein: recombinant; tags: His (pET32a); chain copies: 2; blunt

T1 sequence (Q208U7 entry or part of it): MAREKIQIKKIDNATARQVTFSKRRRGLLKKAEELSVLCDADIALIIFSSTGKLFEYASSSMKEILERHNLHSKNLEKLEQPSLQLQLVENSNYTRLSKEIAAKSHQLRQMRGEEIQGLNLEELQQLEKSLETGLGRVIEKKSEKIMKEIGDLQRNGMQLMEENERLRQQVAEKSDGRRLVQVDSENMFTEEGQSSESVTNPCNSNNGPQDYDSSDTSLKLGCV

| Binder | binding result (MdJa2-His [1]; label: biotin (labeled probe)) | also measured |
| --- | --- | --- |
| B1 | binds |  |
| B2 |  | binding result (MdJa2-His [1]): no binding |
| B3 |  | binding result (MdJa2-His [2]): no binding |
| B4 | binds |  |
| B5 | binds |  |
| B6 |  | binding result (MdJa2-His [3]): no binding |
